For assay [1], the target named is PorK lipoprotein (Porphyromonas gingivalis W50 (endogenous in W50ABK*WbaP)). As to the kind of experiment: negative-stain electron microscopy and electron tomography; purified PorK/N complex (fraction 6 of the CsCl gradient) stained with uranyl acetate.
Assay [2] shares this target. As to the kind of experiment: densitometry of Coomassie stained gels; purified PorK/N complex on SDS-PAGE; PorK band against the combined PorN bands.
Assay [3] concerns the target PorN (Porphyromonas gingivalis W50 (endogenous in W50ABK*WbaP)). In words: negative-stain electron microscopy and electron tomography; purified PorK/N complex (fraction 6 of the CsCl gradient) stained with uranyl acetate.
Assay [4] has as its target PorK lipoprotein (Porphyromonas gingivalis W50 (endogenous in W50ABK*WbaP)). As to the kind of experiment: high sensitivity amino acid analysis of the bands; purified PorK/N complex separated on SDS-PAGE, transferred to PVDF, PorK and PorN bands excised.

Where “and” joins values, the source holds several entries; their conditions need not be identical. Equal entries are not always repeated.

The record followed here is publication PMC4980022.

Consider PorK lipoprotein (natural protein), for which the stoichiometry N (in general, a count of units in the complex or per binding partner) in assay [1] lay in the range of 32 to 36 subunits.

Consider PorN (natural protein), for which the stoichiometry N (PorN per PorK) in assay [2] was 1 and 1.2; in assay [4], 1.2. The substance also registered a stoichiometry N in assay [3] of 32 to 36 subunits.
